Reference: publication doi:10.1101/324590 (bioRxiv, 2018)

T1: His-Ub-RIPK1(497-583) (human, UniProt Q13546 497-583)
T1 sequence (looked up): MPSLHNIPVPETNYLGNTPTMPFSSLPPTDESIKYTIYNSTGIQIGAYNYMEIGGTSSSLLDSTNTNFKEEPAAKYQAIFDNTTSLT

T2: His-Ub-RIPK3(387-518) (human, UniProt Q9Y572 387-518)
T2 sequence (looked up): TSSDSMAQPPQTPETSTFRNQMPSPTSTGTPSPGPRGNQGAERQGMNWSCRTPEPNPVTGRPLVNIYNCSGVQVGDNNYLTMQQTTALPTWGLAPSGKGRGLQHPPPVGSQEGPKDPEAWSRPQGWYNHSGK

T3: mCHERRY-RIPK3(387-518) (human, UniProt Q9Y572 387-518)
T3 sequence (looked up): T2 sequence (looked up)

B1: synthetic peptide encompassing the RHIM of M45 (peptide)
peptide: VRIMNGVSGIQIGNHNAMS
B2: M45(1-90) after removal of MBP with thrombin (domain or fragment, murine cytomegalovirus, UniProt Q06A28 1-90, looked up)
chain: MDRQPKVYSDPDNGFFFLDVPMPDDGQGGQQTATTAAGGAFGVGGGHSVPYVRIMNGVSGIQIGNHNAMSIASCWSPSYTDRRRRSYPKT
B3: ECFP-M45(1-90) (domain or fragment, murine cytomegalovirus, UniProt Q06A28 1-90, looked up)
chain: B2 chain
B4: MBP-M45(1-90) (domain or fragment, murine cytomegalovirus, UniProt Q06A28 1-90, looked up)
chain: B2 chain
B5: mCHERRY-M45(1-90WT) (domain or fragment, murine cytomegalovirus, UniProt Q06A28 1-90, looked up)
chain: B2 chain
B6: His-Ub-M45(1-90) (domain or fragment, murine cytomegalovirus, UniProt Q06A28 1-90, looked up)
chain: B2 chain
B7: M45(1-90) after removal of His6-ubiquitin (domain or fragment, murine cytomegalovirus, UniProt Q06A28 1-90, looked up)
chain: B2 chain
B8: YPet-M45 (domain or fragment, murine cytomegalovirus, UniProt Q06A28 1-90, looked up)
chain: B2 chain
B9: RIPK1(497-583) after removal of MBP with thrombin (domain or fragment, human, UniProt Q13546 497-583, looked up)
chain: T1 sequence (looked up)
B10: RIPK1(497-583) after removal of His6-ubiquitin (domain or fragment, human, UniProt Q13546 497-583, looked up)
chain: T1 sequence (looked up)
B11: Alexa488-labelled RIPK1(497-583) (domain or fragment, human, UniProt Q13546 497-583, looked up)
chain: T1 sequence (looked up)
modifications: Alexa Fluor 488, covalent label, site not stated (degree of labelling 5%)
B12: YPet-RIPK1(497-583) (domain or fragment, human, UniProt Q13546 497-583, looked up)
chain: T1 sequence (looked up)
B13: MBP-RIPK1(497-583) (domain or fragment, human, UniProt Q13546 497-583, looked up)
chain: T1 sequence (looked up)
B14: mCHERRY-RIPK1(497-583) (domain or fragment, human, UniProt Q13546 497-583, looked up)
chain: T1 sequence (looked up)
B15: RIPK3(387-518) after removal of MBP with thrombin (domain or fragment, human, UniProt Q9Y572 387-518, looked up)
chain: T2 sequence (looked up)
B16: YPet-RIPK3(387-518) (domain or fragment, human, UniProt Q9Y572 387-518, looked up)
chain: T2 sequence (looked up)

Legend:
[1] = biological target: the molecule itself; experiment: transmission electron microscopy + thioflavin T fluorescence
[2] = biological target: the molecule itself; experiment: sedimentation of insoluble material + transmission electron microscopy
[3] = biological target: B16; experiment: confocal fluorescence microscopy of fibrils
[4] = biological target: the molecule itself; experiment: SEC
[5] = biological target: the molecule itself; experiment: single-molecule two-colour fluorescence coincidence spectroscopy
[6] = biological target: B16; experiment: as above
[7] = biological target: the molecule itself; experiment: X-ray fibre diffraction
[8] = biological target: the molecule itself; experiment: negative-stain transmission electron microscopy
[9] = biological target: the molecule itself; experiment: confocal fluorescence microscopy of fibrils
[10] = biological target: T1, His-Ub-RIPK1(497-583); experiment: fluorescence polarisation
[11] = biological target: T2, His-Ub-RIPK3(387-518); experiment: fluorescence polarisation
[12] = biological target: B6; experiment: fluorescence polarisation
[13] = biological target: B14; experiment: single-molecule two-colour fluorescence coincidence spectroscopy
[14] = biological target: B5; experiment: as above
[15] = biological target: B3; experiment: confocal fluorescence microscopy of fibrils
[16] = biological target: the molecule itself; experiment: thioflavin T fluorescence kinetics
[17] = biological target: T3, mCHERRY-RIPK3(387-518); experiment: single-molecule two-colour fluorescence coincidence spectroscopy

## B1
[1]
  binding result: binds

## B2
[2]
  binding result: binds

## B3
[3]
  binding result: binds

## B4
[4]
  binding result: binds

## B5
[5]
  binding result: binds
[6]
  binding result: binds

## B6
[7]
  binding result: binds

## B7
[8]
  binding result: binds

## B8
[9]
  binding result: binds

## B9
[2]
  binding result: binds

## B10
[8]
  binding result: binds

## B11
[10]
  binding result: binds
[11]
  binding result: binds
[12]
  binding result: binds

## B12
[13]
  binding result: binds
[14]
  binding result: binds

## B13
[4]
  binding result: binds

## B14
[6]
  binding result: binds
[15]
  binding result: binds
[16]
  binding result: binds

## B15
[2]
  binding result: binds

## B16
[17]
  binding result: binds
